The source of these data is a protein production outcome set (Wang et al. 2014).

The data set is described as follows: label from the status in PepcDB records.
For “AVNEENIMIPKGVEVYEITGPYFFGIATKFEETMAQLGDRPNVRIIRMRKVPFIDSTGIHNLTTLCEMSQKEKITVILSGVNEKVYKVLEKSGFYELLGKENICPNFKIALDRAEEV”, the protein production result is given as “failed”.
Next, “MNPSHGRGLGSAGGSSSGRNQGGGGETVVEMFPSGLRVLVVDDDPTCLMILERMLRTCLYEVTKCNRAEMALSLLRKNKHGFDIVISDVHMPDMD”: “failed”.
Take “MQSSLSFSCGVKSTMAKSPVEVNLIPIEATPETFAEYGQVIEASRDGAGYGPNDAQLDLSKGIPRLYILRLKETPLGFFKITHHAKVTQCLGSIGGDIWYMGVAKPSLIEDDDDGRRVDTVKAKSGHLYIPPEVEEIRVFRFSGPKFVKLHRGTWHAGPLFSGSSIMDFYNLELSNTNVVDHTSHDFTKNNGVSFRFDT”: the protein production entry is reported as “failed”.
Next, “MISTMYSEETSERSSFPSKRHLEDRTENREEHSKRLRPTSFRDQKVTIPQGWLDCPRFGQHIGLIIPSKVPLSESYNDCVPSGKRYNFKQWLTKIGLVIDLTNTTRYYHPNTELRQNRIEYVKIRCSGRDSVPDNVSVNTFVHEVTQFENHNLSEKYLLVHCTHGHNRTGFMIVHYLMRSRPMMSVTQALKIFSDARPPGIYKPDYIDALYRFYHEVKPGSVICPPTPEWKRSEEAKFDDDDNALSYREVQGNNQEENVQLSNDDVLGDEIPYDQEVSYQNSINHMLNISMQFPGSHPLSLGREALQLLRQRYYYATWKADGTRYMMLLTRDGCYLVNREYRFRRVQMRFPCEYEPSDYKVHHYTLLDGEMVVDTIKEGETQRHVRRYLVYDLVAINGQFVAERPFSERWNILERELIKPRNDEKKVRDHWYRYDKEPFGVRIKAFCLLSAVEKKVFNELIPLLSHESDGLIFQGWDNPYVFGPNKDLLKWKFVETLDFLFDMDKYGRQMLFLQERGRMKLMEGFAVEFRGDGWDNDLASYCGKIVECSWDKEKKVWVSLRIRVDKSKPNGIGTGRSVIKCIEDDLTKEVLLKEIKEIILLPMYVERIENDTKEAARRKHGNRKG”: “failed”; “ITSFIRNRDKLTQAEYLLRLAGEKASLGGWRIELDPPVITWTSETAVIHGMPPDYSPPDVGTAVQFYAPEFREFIMEVFERCVQQGEPFDVICQLQVPDGRRPWIRAIGEAERDAQGKVIVVQGAFQDIS”: “failed”; “MKLTPKELDKLMLHYAGELAKKRKEKGIKLNYVEAVALISAHIMEEARAGKKTAAELMQEGRTLLKPDDVMDGVASMIHEVGIEAMFPDGTKLVTVHTPIEANGKLVPGELFLKNEDITINEGKKAVSVKVKNVGDRPVQIGSHFHFFEVNRCLDFDREKTFGKRLDIASGTAVRFEPGEEKSVELIDIGGNRRIFGFNALVDRQADNESKKIALHRAKERGFHGAKSDDNYVKTIKE”: “failed”.
Next, “MNDAAVWVPVPAMFYWGWLVPLIFGTIFGWRYHRDKVRLGNGIWFSLFFYSFLTMLAITILGSNIHWLIIISGALFVLLILLIGLIFTLQAFLLLWNAWIMWRHESHTLANMLTLYLGLGILVLPFLGNLLSSHVPQPVSYFLTLFPNLVIFYLGFLFYNYLTMLTIYQFNWPRLRQDYIIVLGDGWAETQSKTTFQNMQFSKQLIAQGPAKNPRTIFVTNKYGRLQI”: “failed”; “MNDQVRLHYETWVYPRYPLAASVRRSDTYALSLDALYARFNGTLPPAAARRILLAGCGSFSPYPTAVANPGVPVTALDLSAANLRRARLHAWMHGRFGISFEQGDLMDPAAAQGEYGFIDSFGVIHHLADPLAGLRALERRLAPGGILRLMVYSRGARRVVESARRALRFAGVRDVARLKDLLRRSPPGSRLSHAVEASGEGGGDAGLADALLHPRARIFSIDELMAMVGETGLVPLRFAHSRALAEPGAEVVRLRGLEQAGEPVPNFVLYLGREPRGGCGLAPDALLMLNPALRHDVGVLRLAPLAVPPRLGLKNPVLGFADRRFLRRFSTPLPVSALTPTDRERVGPFLDALFVIPFR”: “failed”; “MFFLSDHDTLISSIEAIGASFAVFEFDPQSVAFELVSCNSRYEDLMGYSSAKALGQPLTTIFPRYIHNPLKEAFIHCKNERIALETEIVLDYKGQERCWRSIVSPIVNSADEKFRIIQTCVEITEKKVLEKQLNLSMKRFEAVVNNAYDGIITIDEQQNVKLFNEAAQSMFGYSEQEIMGQPLTKLLPEKYQAKHHGYVEGFKRSQVDSRPMQTRAAVQGLRKDGSEFAIEVTISKIRIADNVEFTAVIRDISEKNQLLEELILSSRRDPLTELYNRRYFTELLHSEITRSRRFKRGFSLLMLDIDHFKSINDRYGHACGDAALIAFSKAVTNSIREVDTICRWGGEEFLVLLPEIPKVTAMVVAEKIRKNIENLETIYEGDLIKVTVSIGLEYFSGDAIEMSSMINKVDQILYRAKDTGRNKISTEI”: “failed”.
Next, “SDDREMDDGRWKASALRVPLQVSSAVIKQEVVTRLAPDPVPLTEGAIGIFLSGTEPESGQEDSGYKVIDNRKYVYSEGHWGPPTANDTIYLVGNDADVCAYYPYKDSYTDKTVIPLQSQDYVETEDIYYALNTMINGFTPAITFDMVHAYSLVELKISRENYFMPCEISKITLKNSNLIKKGTINIAVDGSIHSSETGNYDLTTVTDASPHTLSVGESYVCRVLMIPVPLKIERTDAEGGEFGLSVSLVIDGQQMLVEIPYSELGEFRQGEKYVIGLKIKGTEIVPTVKALEWEDEEVNGGNKYPVE”: “not failed”; “MGTPGEGLGRCSHALIRGVPESLASGEGAGAGLPALDLAKAQREHGVLGGKLRQRLGLQLLELPPEESLPLGPLLGDTAVIQGDTALITRPWSPARRPEVDGVRKALQDLGLRIVEIGDENATLDGTDVLFTGREFFVGLSKWTNHRGAEIVADTFRDFAVSTVPVSGPSHLRGLCGMGGPRTVVAGSSDAAQKAVRAMAVLTDHPYASLTLPDDAAADCLFLRPGLPGVPPFLLHRGGGDLPNSQEALQKLSDVTLVPVSCSELEKAGAGLSSLCLVLSTRPHS”: “failed”; “MAGSSTSSSEACTDPYLRCAFNGAALTALGISHSALLAHSPQGCEYLVNNAFASQECDYMETMTLCTKLCVDEIVHGGEDILARTIREVKDLPISALFVLSACGPEIVGDDIVGVCEALQPEVKFRLVPIESAGFRGSQYDGIDIAMDTILKKLVKDDVEKIPGSVCLVAPHANANPTWPADLAWVKQVLFRMGIKVVATLTHRTPIAEIENIASAETSLLLSHDAGQKAADYLSATFGIEQVCKGIPLPIGMTNTQRWLTALGDRFDILKTAEEIVAEGERMVMATCRRKWPMARFMYRTPAAIVADATVGIPLVRFVTEEMEMTPELVALYTSHRSVWELLEGELKSLGLNPKVVYGTDVYKTRKSLQEVRPRVVFGSTIERHASEGLPVAYVVEVVRMMRQFRMINREYFGYTGILNLLECVQNEWVMGWRSKERRYEAKW”: “failed”.
“MGGLGYGCHPVPAVLDDEGNQLPDPGRRRTVIHDGSAADRQPGVQHRALADGRRQLARHRLLPGRARRVIAGQGCQRARPRSGEGRRRGVHGDLRHRIRHGPASLPDRGGRGRRAEALLVAEEHAMSRASRHRILAAMLSACLLSLLGGCTPLTVLAVLGGCKDGGSNGSSGGVTGSVTTGEVRDGMTIAQTKAWFNGSDGPDNVCQAYPDGQCTWWACMRGHKIGLDVGSYWGNGGDWAASATAAGWKTTRTDPVAGSIVSYPPGVADADTLYGHVAVVEAVDRTAGTVTISEMNGRGGLGIVNHRTHRINVGAVYILPNGSVSTNGSAGTDSTSSGSESSDSSSSSDSSSSSDPVEAAWTCSSSDSGSTDVVVDYDGDGTHATPEQARAIARKMIASYKDWGDGDYDALVWLWNKESGWQWNATNPSSGAYGIPQALPASKLASAGDDWKDNAATQIKWGLNYIAGRYGSPSAAKTFWLAHNWY”: the protein production entry was “failed”.
Next, “VVNDEWLSILGLSRQDITNHISDWDGLIHPNDDQFMKKTVQTHILSGKNYVVEFRMKHADGRWVWIQGSGSVIEYDENTHEPVRLCGTHQDITVRK”: “failed”; “MKVFIAGGRGRVGSLLADNLEAKGIEVVSGGLEDGIDVISGKGLTEALAGVDTIVNVLNTPRFDAEGAISFFEGAINNLTAEGERAGVRHHIVLSIVGVGQGDASEVGYYLGKVAQEKAVRSASIPATIIRATQFQSYIPVLIDQHTVDGKVIAPRSFVQPVELDEVIELLAEAATTLEPGSEVEIAGPDRFYHDDLFRATLADRGDDREVVTVDAEGAPDVMVPRGAYRTGTVRYPITGIPTV”: “failed”; “GGGTRFALVAGTTETAGRAGISAAGADPELMSVTPAADAELVTYGTPVRTDVTPVSPSGCPTPALVTRAAREVLGFDVTVVDGGLAEKTGAPTVSVGARPGKDIAEQDPVSTAHGAFAAARQFGQSLPADELYLGETIPGGTTTALGVLRALGEDGMVSSSLPENPTAQKSEVVAEGLQASSLEPGDAANEPKRAVRRMGDPVLATLAGLTAGAVESDTAVTLAGGSQCVAVAALVRHGGYEGPLGLATTSYVADDESADVRASVDRLDLDLTVTDPGFDRSDHVAMERFVAGEAKEGVGMGGALALADRAGI”: “failed”.
Next, “MNENEQKAGSVADQKSKIRERYKGIDPDELDVIPALPQEDIFAVENEQRVAVYARVSTDDPRQTSSYELQKNHYHDVISKSPNWKLVQIYADEGISGTSLQHRDQFKLMIEDCKKGQIDLIVTKSVSRFARNVVDCIGYVRELLSLPHPVGVFFETERLNTFDPKSEMVLSFMATLAQEESHTKSEIMNASIEMRFRRGIFLTPILLGYDHDEDGNLIINEGEAKIVKLIFMMYLNGCTCQEIADTLTELGCETKKGNTVWSPGSILQILQNERHCGDVLAHKTYTPNYLNHKSKKNMQNRPQYRKRDHHEAIISRDDFIAVQRLISNAKYGNKGILPQLKVIPGGVLKGFVSINPRWAGFKETDYMNASSSVYDGTEQSGPSSGHVEVKSGEFDLRGYEIARSQFFDSTDRITVTFSQGDIRFSAPAVRKLDSTLVELLIHPKKLVFAVRNAGKDCRNAMQWSKKKDGKNSPREISGTAFLPTLYSLLGWNDDCRYRITGVKRGSGNDAVLLFNLSEPEIFIPNDMVGAPDADPAVKPFTDNQQRNVRAYPPDWADTFGSNYYSHAQAEELAGFTGRKDPDTSHAPVTYNDTDIQVTSKNDIEKNIKQIMSDMKENTDEHTDKR”: “failed”; “MSEEKNLVINANDSLGEIVIAPEVIEVIIGIAASKVEGVYGMRGTFANNVNELLGRAAHGKGVYLRTEEEGLKVDIYCYLNYGVSVPKVALEMQDRVKQQVLFMTDIDLVEVNIHVVAVVPEKIPQPDLNELFPEDEDGEENELEHHHHHH”: “not failed”.
For “MAELGITLRTVQSLGPGETIWDAGHRAAVRGFGVRRQRGAPVYVLKYRAHGRQRFFTIGPHGSPWTPERARREAKRLLGLVADGKDPADDRAEAALQAADTLLKIADQYLKHAKQKQRPRTYSEIERYLLTAWKPLHPVSVFLIKRRHVAIRIAEIATGQGAVTAARARAALSAMFNWAIREGLDIPANPVLGTNRPAAPRSRDRVLADGELAEIWAALGDDDYGRIVKLLLLTAQRREEVGSMRRTELDLENSVWKIPGNRTKNHREHKVPLTKAAIALIPLPRGNREYVFGDGPRREGDNHRGYSGWSKSKAGLDARLLAVRQKALDAGVAAEPLPDWHLHDLRRTAATVMADRLGVFPHIVEAVLNHVSGHRAGVAGVYNLARYETDMRAALNAWADNIKDIVAS” the value was “failed”; for “MEERNEQVVEEVKEEVKEAQVEEAVTSEDSEESVEEKSEAALLQEKVDELQAKLTETEGRMLRLQADFENYKRRVQMDKQAAEKYRAQSLVSDILPALDNFERAMQVEANDEQMKSLLQGMEMVYRQLLEAMTKEGVEAIEAVGKQFDPHEHQAVMQVEDSEFESNAVVEEFQKGYKLKDRVIRPSMVKVNQ”, “failed”.
